Experimental data: article PMC12196458, “An Alternative Mechanism of Glutamate Dehydrogenase Inhibition by EGCG: Promotion of Protein Degradation” (Pharmaceuticals, 2025)

Molecular target: the molecule itself
Assay: native gel or EMSA; native-PAGE of 2.5 mg/mL bovine GDH without EGCG or trypsin

B1: bovine glutamate dehydrogenase (enzyme)
chain: not shown
notes: Glutamate dehydrogenase 1, bovine, commercial preparation; Used as a substitute for wild-type human GDH in the gel experiments; also called Bovine GDH; Bo.GDH
  stoichiometry N: 6
